The values below come from doi:10.1101/2020.08.27.270058.

In experiment [1] the target is MglB (Myxococcus xanthus) (UniProt Q1DB03). Briefly: ITC. A general note: Isothermal titration calorimetry measures the heat released or taken up as one component is titrated into another.
For experiment [2] the target is unchanged. Nature of the experiment: SEC. For orientation: In gel filtration, larger molecules generally elute earlier.
In experiment [3] the target is MglC (Myxococcus xanthus). Nature of the experiment: SEC.
The target of experiment [4] is MglB (Myxococcus xanthus) (UniProt Q1DB03). Briefly: SAXS.
Experiment [5] addresses MglC (Myxococcus xanthus). Nature of the experiment: SAXS.
Experiment [6] addresses T1, MglB (Myxococcus xanthus), Q1DB03.
T1 chain: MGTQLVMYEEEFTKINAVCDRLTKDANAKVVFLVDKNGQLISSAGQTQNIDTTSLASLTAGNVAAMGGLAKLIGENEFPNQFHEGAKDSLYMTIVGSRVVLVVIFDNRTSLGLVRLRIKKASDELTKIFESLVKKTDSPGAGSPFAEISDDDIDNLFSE
Nature of the experiment: SAXS. Conditions: remark: other sources report otherwise.

Experiment [7] has the same target. Nature of the experiment: SEC. Conditions: remark: other sources report otherwise.

As a reminder, the Kd is the concentration at which binding is half-saturated. Low readings indicate tighter binding, high ones weaker binding. A word on the stoichiometry N: it is the number of molecules, sites or subunits per partner or assembly. For MglC (natural protein), in experiment [1], the Kd is 625 nM. Moreover, the dH in experiment [1] is 6.94 kcal/mol. For the same molecule, the values for the stoichiometry N in experiment [1], in experiment [3] and in experiment [5] were 0.5, 2 and 2, respectively. The stoichiometry N (MglC:MglB (2:4)) in experiment [2] and in experiment [4] was 0.5 throughout.

B1: MglB, Q1DB03 1-159 (natural protein)
chain: MGTQLVMYEEEFTKINAVCDRLTKDANAKVVFLVDKNGQLISSAGQTQNIDTTSLASLTAGNVAAMGGLAKLIGENEFPNQFHEGAKDSLYMTIVGSRVVLVVIFDNRTSLGLVRLRIKKASDELTKIFESLVKKTDSPGAGSPFAEISDDDIDNLFSE
As for B1, the stoichiometry N in experiment [6] and in experiment [7] was 2 each time.
